Values of other authors, collected in PMC2164963.

Biological target: EBNA-1 (Epstein-Barr virus) (UniProt P03211)

For EBNA-1 (from UniProt P03211), the Kd is given as 1 nM.
